Measurements: article PMC4140284, “Human UTY(KDM6C) Is a Male-specific N^ϵ-Methyl Lysyl Demethylase” (The Journal of Biological Chemistry, 2014)
“Also recorded” adds a separate entry of the source.

B1: Nkx2.5: transcription factor (protein, UniProt P52952 1-324, looked up)
Homeobox protein Nkx-2.5: MFPSPALTPTPFSVKDILNLEQQQRSLAAAGELSARLEATLAPSSCMLAAFKPEAYAGPEAAAPGLPELRAELGRAPSPAKCASAFPAAPAFYPRAYSDPDPAKDPRAEKKELCALQKAVELEKTEADNAERPRARRRRKPRVLFSQAQVYELERRFKQQRYLSAPERDQLASVLKLTSTQVKIWFQNRRYKCKRQRQDQTLELVGLPPPPPPPARRIAVPVLVRDGKPCLGDSAPYAPAYGVGLNPYGYNAYPAYPGYGGAACSPGYSCTAAYPAGPSPAQPATAAANNNFVNFGVGDLNAVQSPGIPQSNSGVSTLHGIRAW
B2: FL WT UTY(KDM6C): full-length wild type UTY(KDM6C) exogenously expressed in cells (protein, UniProt O14607 1-1347, looked up)
chain: MKSCAVSLTTAAVAFGDEAKKMAEGKASRESEEESVSLTVEEREALGGMDSRLFGFVRLHEDGARTKTLLGKAVRCYESLILKAEGKVESDFFCQLGHFNLLLEDYSKALSAYQRYYSLQADYWKNAAFLYGLGLVYFYYNAFHWAIKAFQDVLYVDPSFCRAKEIHLRLGLMFKVNTDYKSSLKHFQLALIDCNPCTLSNAEIQFHIAHLYETQRKYHSAKEAYEQLLQTENLPAQVKATVLQQLGWMHHNMDLVGDKATKESYAIQYLQKSLEADPNSGQSWYFLGRCYSSIGKVQDAFISYRQSIDKSEASADTWCSIGVLYQQQNQPMDALQAYICAVQLDHGHAAAWMDLGTLYESCNQPQDAIKCYLNAARSKRCSNTSTLAARIKFLQNGSDNWNGGQSLSHHPVQQVYSLCLTPQKLQHLEQLRANRDNLNPAQKHQLEQLESQFVLMQQMRHKEVAQVRTTGIHNGAITDSSLPTNSVSNRQPHGALTRVSSVSQPGVRPACVEKLLSSGAFSAGCIPCGTSKILGSTDTILLGSNCIAGSESNGNVPYLQQNTHTLPHNHTDLNSSTEEPWRKQLSNSAQGLHKSQSSCLSGPNEEQPLFSTGSAQYHQATSTGIKKANEHLTLPSNSVPQGDADSHLSCHTATSGGQQGIMFTKESKPSKNRSLVPETSRHTGDTSNGCADVKGLSNHVHQLIADAVSSPNHGDSPNLLIADNPQLSALLIGKANGNVGTGTCDKVNNIHPAVHTKTDHSVASSPSSAISTATPSPKSTEQRSINSVTSLNSPHSGLHTVNGEGLGKSQSSTKVDLPLASHRSTSQILPSMSVSICPSSTEVLKACRNPGKNGLSNSCILLDKCPPPRPPTSPYPPLPKDKLNPPTPSIYLENKRDAFFPPLHQFCTNPKNPVTVIRGLAGALKLDLGLFSTKTLVEANNEHMVEVRTQLLQPADENWDPTGTKKIWRCESNRSHTTIAKYAQYQASSFQESLREENEKRTQHKDHSDNESTSSENSGRRRKGPFKTIKFGTNIDLSDNKKWKLQLHELTKLPAFARVVSAGNLLTHVGHTILGMNTVQLYMKVPGSRTPGHQENNNFCSVNINIGPGDCEWFVVPEDYWGVLNDFCEKNNLNFLMSSWWPNLEDLYEANVPVYRFIQRPGDLVWINAGTVHWVQAVGWCNNIAWNVGPLTACQYKLAVERYEWNKLKSVKSPVPMVHLSWNMARNIKVSDPKLFEMIKYCLLKILKQYQTLREALVAAGKEVIWHGRTNDEPAHYCSICEVEVFNLLFVTNESNTQKTYIVHCHDCARKTSKSLENFVVLEQYKMEDLIQVYDQFTLALSLSSSS
modifications: full-length
notes: full-length wild type UTY(KDM6C) exogenously expressed in cells

What was measured:
[1] = test system: ANF promoter in HEK 293T cells; assay: ANF promoter dual luciferase assay in HEK 293T cells; assay type: cell-based; conditions: for ANF promoter luciferase expression in the presence of Nkx2.5: Nkx2.5 present
Method: (§1) For cell-based experiments, HEK 293T and HeLa cells were cultured at 37 °C and 5% CO2 in DMEM (Lonza) supplemented with 10% fetal bovine serum (FBS) (Invitrogen) and 1% Glutamax (Invitrogen). For microscopy, HeLa cells were seeded into 96-well clear bottom optical grade plates (BD Biosciences) at 8000 cells/well and allowed to settle overnight. Transfections were carried out the next day. For each well, 0.1 μg of plasmid and 0.25 μl of Lipofectamine 2000 (Invitrogen) were each incubated in 25 μl of Opti-MEM (Invitrogen) for 5 min at room temperature. The two solutions were then mixed gently but thoroughly and incubated for 20 min at room temperature. The mixture was added to the cells in 50 μl of fresh medium. Four hours later, the medium was changed, and the cells were incubated for a further 24 h before fixation. Cells were fixed in 4% (v/v) aqueous formaldehyde for 20 min, permeabilized in 0.5% Triton X-100 in phosphate-buffered saline (PBS) for 8 min, and blocked in 3% (w/v) FBS in PBS for 1 h with a PBS wash between each step. The primary antibodies were then added to the cells in blocking solution. After 1 h at room temperature, cells were washed three times in PBS, incubated with secondary antibodies for 1 h, rinsed three times in PBS again, and counterstained with DAPI before imaging. Luciferase activity assays were carried out as described previously ([13], [22], [40]). The atrial natriuretic factor (ANF) promoter-luciferase reporter was a kind gift from Benoit Bruneau ([41]). As for immunofluorescence assays, this construct was co-transfected into HEK 293T cells in the presence of full-length (FL) WT UTY(KDM6C) or H1095 UTY(KDM6C). Luciferase activity was measured using the Promega Dual-Luciferase Reporter Assay System on a Promega GloMax 20/20 luminometer. Readings were normalized to a Renilla luciferase control that was co-transfected with all samples.

[2] = test system: H3K27Me3 levels in HeLa cells; assay: Immunofluorescence of global H3K27Me3 levels on overexpression in HeLa cells; assay type: cell-based; conditions: exogenous overexpression in HeLa cells
Method: as §1, with “After 1 h at room temperature, cells were washed three times in PBS, incubated with secondary antibodies for 1 h, rinsed three times in PBS again, and counterstained with DAPI before imaging. Luciferase activity assays were carried out as described previously ([13], [22], [40]). The atrial natriuretic factor (ANF) promoter-luciferase reporter was a kind gift from Benoit Bruneau ([41]). As for immunofluorescence assays, this construct was co-transfected into HEK 293T cells in the presence of full-length (FL) WT UTY(KDM6C) or H1095 UTY(KDM6C).” left out, “samples. […]” for “samples.”

Row | Molecule | ANF promoter luciferase expression in the presence of Nkx2.5 ([1]; HEK 293T cells) | change in global H3K27Me3 level [2] | ANF promoter luciferase expression (in words) ([1]; HEK 293T cells, without Nkx2.5, *, p < 0.05 unpaired Student's t test) | increase in ANF promoter-coupled luciferase expression ([1]; overexpression in HEK 293T cells, relative to empty vector control, average of three biological replicates of triplicate transfections)
1 | B1 | enhanced expression from the ANF promoter |  |  | 
2 | B2 | does not further enhance expression | no detectable decrease; also recorded: no change in H3K27Me3 levels | enhanced expression | 5 -fold
